Here are results for one molecule from patent publication US20130004429A1.

Ends that are not written are not given here. * marks the point of attachment. Biotin = O=C1N[C@H]2[C@H](CS[C@H]2CCCCC(=O)*)N1

This experiment concerns the target tubulin (rat). Briefly: cell-based or functional assay.

Biotin-YSSYSAPVSSSLSVRRSYSSSSGS [NFL-TBS40-63 peptide, biotinylated]: the cells with altered microtubule network (immunocytochemistry), 9L rat glioma cells was found to be 76.7%; the cells with altered microtubule network (immunocytochemistry), F98 rat glioma cells came out at 82%; the cells with altered microtubule network (immunocytochemistry), rat neurons was found to be 8.5%; the cells with altered microtubule network (immunocytochemistry), rat primary astrocytes is 4.7%.
